From article PMC10516925, “Determining subunit-subunit interaction from statistics of cryo-EM images: observation of nearest-neighbor coupling in a circadian clock protein complex” (Nature Communications, 2023)

Tests used:
KaiC-AA (S431A, T432A) = KaiC-AA (S431A, T432A) (UniProt Q79PF4); test: cryo-EM structure; single-particle cryo-EM of pure KaiC-AA or KaiC-EE, 0.35 ug/ul in 20 mM Tris-HCl (pH 8.0), 150 mM NaCl, 5 mM MgCl2, 0.5 mM EDTA, 1 mM ATP; incubated at 30 °C for 6 h
[1] = target: the molecule itself; test: as above

stoichiometry N (KaiC-AA (S431A, T432A))	Molecule	stoichiometry N [1]
6	KaiC-AA (S431A, T432A) (from UniProt Q79PF4 14-484) (natural protein)	–
–	KaiC-EE (S431E, T432E) (natural protein, source: hexamer fractions selected; not shown: His6, N-terminal, cleaved) EHQAIAKMRTMIEGFDDISHGGLPIGRSTLVSGTSGTGKTLFSIQFLYNGIIEFDEPGVFVTFEETPQDIIKNARSFGWDLAKLVDEGKLFILDASPDPEGQEVVGGFDLSALIERINYAIQKYRARRVSIDSVTSVFQQYDASSVVRRELFRLVARLKQIGATTVMTTERIEEYGPIARYGVEEFVSDNVVILRNVLEGERRRRTLEILKLRGTSHMKGEYPFTITDHGINIFPLGAMRLTQRSSNVRVSSGVVRLDEMCGGGFFKDSIILATGATGTGKTLLVSRFVENACANKERAILFAYEESRAQLLRNAYSWGMDFEEMERQNLLKIVCAYPESAGLEDHLQIIKSEINDFKPARIAIDSLSALARGVSNNAFRQFVIGVTGYAKQEEITGLFTNTSDQFMGAHSITDSHIEEITDTIILLQYVEIRGEMSRAINVFKMRGSWHDKAIREFMISDKGPDIKDSFRNFERIISGSPTRI	6
